Here are results for seven molecules from PMC3855848 (Chemistry & biology, 2013).

In data set [1] the target is actKR (actinorhodin type II polyketide ketoreductase) (Streptomyces coelicolor, UniProt P16544, R65A). Nature of the data set: NADPH fluorescence titration. The data set is classed as binding.
Data set [2] concerns the target actKR (actinorhodin type II polyketide ketoreductase) (Streptomyces coelicolor, UniProt P16544, R38A). Description: NADPH fluorescence titration. The data set is classed as binding.
In data set [3] the target is actKR (actinorhodin type II polyketide ketoreductase) (Streptomyces coelicolor, UniProt P16544). Nature of the data set: NADPH fluorescence titration. The data set is classed as binding.
Data set [4] has as its target actKR (actinorhodin type II polyketide ketoreductase) (Streptomyces coelicolor, UniProt P16544, R177A). Nature of the data set: NADPH fluorescence titration. It counts as binding.
Data set [5] has as its target actKR (actinorhodin type II polyketide ketoreductase) (Streptomyces coelicolor, UniProt P16544, R93A). Description: NADPH fluorescence titration. The data set is classed as binding.
The target of data set [6] is actKR (actinorhodin type II polyketide ketoreductase) (Streptomyces coelicolor, UniProt P16544, R220A). Description: NADPH fluorescence titration. The data set is classed as binding.
Sequence of actKR (actinorhodin type II polyketide ketoreductase) (Streptomyces coelicolor, UniProt P16544, R220A) (P16544 whole entry R220A): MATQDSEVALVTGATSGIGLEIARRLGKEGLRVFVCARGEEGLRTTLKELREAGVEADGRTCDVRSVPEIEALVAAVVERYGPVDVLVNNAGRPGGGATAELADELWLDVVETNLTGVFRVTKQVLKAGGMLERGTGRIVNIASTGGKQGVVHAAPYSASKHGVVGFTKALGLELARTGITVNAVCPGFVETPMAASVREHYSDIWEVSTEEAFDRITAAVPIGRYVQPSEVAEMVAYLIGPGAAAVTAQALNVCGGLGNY
Substrate in the data set “purified protein”: O=C1CCC[C@H]2CCCC[C@H]12
Description: purified protein. The data set is classed as biochemical, Streptomyces coelicolor. The conditions noted are these: co-substrate NADPH.

Sequence of actKR (actinorhodin type II polyketide ketoreductase) (Streptomyces coelicolor, UniProt P16544, R93A) (P16544 whole entry R93A): as the sequence (P16544 whole entry R220A) above, with R93A, A220R counted along it
Sequence of actKR (actinorhodin type II polyketide ketoreductase) (Streptomyces coelicolor, UniProt P16544, R65A) (P16544 whole entry R65A): as the sequence (P16544 whole entry R220A) above, with R65A, A220R counted along it
Sequence of actKR (actinorhodin type II polyketide ketoreductase) (Streptomyces coelicolor, UniProt P16544, R38A) (P16544 whole entry R38A): as the sequence (P16544 whole entry R220A) above, with R38A, A220R counted along it
Sequence of actKR (actinorhodin type II polyketide ketoreductase) (Streptomyces coelicolor, UniProt P16544, R177A) (P16544 whole entry R177A): as the sequence (P16544 whole entry R220A) above, with R177A, A220R counted along it

Take `NC(=O)C1=CN([C@@H]2O[C@H](COP(=O)(O)OP(=O)(O)OC[C@H]3O[C@@H](n4cnc5c(N)ncnc54)[C@H](OP(=O)(O)O)[C@@H]3O)[C@@H](O)[C@H]2O)C=CC1` [NADPH]: the Kd in data set [1] is 1830 ± 210 nM; in data set [2], 4300 ± 400 nM; in data set [3], 1520 ± 90 nM; in data set [4], 1170 ± 100 nM; in data set [5] it was 6430 ± 680 nM; in data set [6], 1990 ± 160 nM.

B1: actKR (actinorhodin type II polyketide ketoreductase) (Streptomyces coelicolor A3(2); F189A) (protein)
chain: MATQDSEVALVTGATSGIGLEIARRLGKEGLRVFVCARGEEGLRTTLKELREAGVEADGRTCDVRSVPEIEALVAAVVERYGPVDVLVNNAGRPGGGATAELADELWLDVVETNLTGVFRVTKQVLKAGGMLERGTGRIVNIASTGGKQGVVHAAPYSASKHGVVGFTKALGLELARTGITVNAVCPGAVETPMAASVREHYSDIWEVSTEEAFDRITARVPIGRYVQPSEVAEMVAYLIGPGAAAVTAQALNVCGGLGNY
For the molecule B1, in the data set “purified protein”, the Michaelis-Menten constant (Km) was determined as 8630 ± 2010 µM, the catalytic constant (kcat) was 0.049 ± 0.005 s⁻¹ and the kcat/Km was 5.7 ± 1.5 M⁻¹ s⁻¹.

B2: actKR (actinorhodin type II polyketide ketoreductase) (Streptomyces coelicolor A3(2)) (protein)
chain: MATQDSEVALVTGATSGIGLEIARRLGKEGLRVFVCARGEEGLRTTLKELREAGVEADGRTCDVRSVPEIEALVAAVVERYGPVDVLVNNAGRPGGGATAELADELWLDVVETNLTGVFRVTKQVLKAGGMLERGTGRIVNIASTGGKQGVVHAAPYSASKHGVVGFTKALGLELARTGITVNAVCPGFVETPMAASVREHYSDIWEVSTEEAFDRITARVPIGRYVQPSEVAEMVAYLIGPGAAAVTAQALNVCGGLGNY
On to B2, for which, in “purified protein”, the Km amounted to 760 ± 90 µM, the kcat is 2.55 ± 0.12 s⁻¹ and the kcat/Km was found to be 3230 ± 320 M⁻¹ s⁻¹.

B3: actKR (actinorhodin type II polyketide ketoreductase) (Streptomyces coelicolor A3(2); M194W) (protein)
chain: MATQDSEVALVTGATSGIGLEIARRLGKEGLRVFVCARGEEGLRTTLKELREAGVEADGRTCDVRSVPEIEALVAAVVERYGPVDVLVNNAGRPGGGATAELADELWLDVVETNLTGVFRVTKQVLKAGGMLERGTGRIVNIASTGGKQGVVHAAPYSASKHGVVGFTKALGLELARTGITVNAVCPGFVETPWAASVREHYSDIWEVSTEEAFDRITARVPIGRYVQPSEVAEMVAYLIGPGAAAVTAQALNVCGGLGNY
Take B3: in “purified protein”, the Michaelis-Menten constant (Km) was found to be 3220 ± 650 µM, the turnover number (kcat) was 0.43 ± 0.06 s⁻¹ and the kcat/Km is 130 ± 30 M⁻¹ s⁻¹.

B4: actKR (actinorhodin type II polyketide ketoreductase) (Streptomyces coelicolor A3(2); V198A) (protein)
chain: MATQDSEVALVTGATSGIGLEIARRLGKEGLRVFVCARGEEGLRTTLKELREAGVEADGRTCDVRSVPEIEALVAAVVERYGPVDVLVNNAGRPGGGATAELADELWLDVVETNLTGVFRVTKQVLKAGGMLERGTGRIVNIASTGGKQGVVHAAPYSASKHGVVGFTKALGLELARTGITVNAVCPGFVETPMAASAREHYSDIWEVSTEEAFDRITARVPIGRYVQPSEVAEMVAYLIGPGAAAVTAQALNVCGGLGNY
Take B4: in “purified protein”, the Michaelis constant (Km) amounted to 15500 ± 1490 µM, the kcat was found to be 0.24 ± 0.01 s⁻¹ and the catalytic efficiency (kcat/Km) is 16 ± 2 M⁻¹ s⁻¹.

B5: actKR (actinorhodin type II polyketide ketoreductase) (Streptomyces coelicolor A3(2); T145A) (protein)
chain: MATQDSEVALVTGATSGIGLEIARRLGKEGLRVFVCARGEEGLRTTLKELREAGVEADGRTCDVRSVPEIEALVAAVVERYGPVDVLVNNAGRPGGGATAELADELWLDVVETNLTGVFRVTKQVLKAGGMLERGTGRIVNIASAGGKQGVVHAAPYSASKHGVVGFTKALGLELARTGITVNAVCPGFVETPMAASVREHYSDIWEVSTEEAFDRITARVPIGRYVQPSEVAEMVAYLIGPGAAAVTAQALNVCGGLGNY
In the case of B5, in the data set “purified protein”, the Michaelis-Menten constant (Km) came out at 420 ± 60 µM, the turnover number (kcat) was 0.18 ± 0.008 s⁻¹ and the kcat/Km amounted to 420 ± 60 M⁻¹ s⁻¹.

B6: actKR (actinorhodin type II polyketide ketoreductase) (Streptomyces coelicolor A3(2); D109R) (protein)
chain: MATQDSEVALVTGATSGIGLEIARRLGKEGLRVFVCARGEEGLRTTLKELREAGVEADGRTCDVRSVPEIEALVAAVVERYGPVDVLVNNAGRPGGGATAELADELWLRVVETNLTGVFRVTKQVLKAGGMLERGTGRIVNIASTGGKQGVVHAAPYSASKHGVVGFTKALGLELARTGITVNAVCPGFVETPMAASVREHYSDIWEVSTEEAFDRITARVPIGRYVQPSEVAEMVAYLIGPGAAAVTAQALNVCGGLGNY
Regarding B6, in “purified protein”, the Km is 1250 ± 400 µM, the kcat was found to be 0.078 ± 0.01 s⁻¹ and the kcat/Km was determined as 62 ± 21 M⁻¹ s⁻¹.

One may read the Kd as the equilibrium constant for the complex coming apart. For orientation: Km means the concentration of substrate that gives half-maximal velocity. In general, kcat refers to the maximal rate divided by the concentration of active sites. The term kcat/Km denotes the turnover number divided by the Michaelis constant.
